Assay [1] concerns the target T1, monoclonal antibody 21-4-3.
T1 construct: mouse IgG1 heavy chain, kappa light chain; also called mAb21-4-3; produced by hybridoma ABH0015 (LMBP-9680-CB)
The assay can be described thus: Biacore, captured 21-4-3. On the procedure:
Binding measurements were performed using a Biacore T100 using a CM5 T120416 sensor chip, with running buffer HBS-EP+, 25° C. […] The anti-mouse IgG used was a polyclonal rabbit anti-mouse IgG antibodies reacting with all IgG subclasses, IgA and IgM (GE Healthcare; Cat#BR-1008-38; Lot#10056316). Immobilisation of the anti-mouse IgG was performed using manual amine coupling using a 7 minute injection of EDC/NHS for activation and a 7 minute injection of 1M ethanolamine HCl pH 8.5 for deactivation (Biacore, amine coupling kit).
(In general: SPR reads the build-up and loss of mass on a sensor chip optically.)

Assay [2] deals with T2, purified interference factor(s) from serum of Donor A.
T2 construct: text names Donors 8, 19 and 30
In words: Biacore, immobilized interference factor.

In assay [3] the target is T3, purified interference factor(s) from serum of Donor B.
T3 construct: text names Donors 8, 19 and 30
In words: Biacore, immobilized interference factor.

The target of assay [4] is T4, purified interference factor(s) from serum of Donor C.
T4 construct: text names Donors 8, 19 and 30
In words: Biacore, immobilized interference factor.

B1: SEQ ID NO 45 (VHH)
VHH: EVQLVESGGGLVQAGGSLRLSCAASRSIGRLDRMGWYRHRTGEPRELVATITGGSSINYGDFVKGRFTISIDNAKNTVYLQMNNLKPEDTAVYYCNFNKYVTSRDTWGQGTQVTVSS
notes: mutations: P14A, P41T, S62F, S74A, S82bN, R83K, L108Q
Consider B1, for which the “binding vs Reference Sequence (=100%)” value in assay [1] worked out at 22%; in assay [2], 0%.

B2: SEQ ID NO 46 (VHH)
VHH: B1 VHH
notes: C-terminal tag
Turning to B2, the “binding vs Reference Sequence (=100%)” value amounted to 2% in assay [1] and 0% in assay [2].

B3: SEQ ID NO 47 (VHH)
VHH: EVQLVESGGGLVQPGGSLRLSCAASGSVFKINVMAWYRQAPGKGRELVAGIISGGSTSYADSVKGRFTISRDNAKNTLYLQMNSLRPEDTAVYYCAFITTESDYDLGRRYWGQGTLVTVSS
As for B3, the “binding vs Reference Sequence (=100%)” value in assay [1] was found to be 4%; in assay [2] it was 1%.

B4: SEQ ID NO 43 (bispecific antibody)
chain: DVQLVESGGGLVQPGGSLRLSCAASGFILDYYAIGWFRQAPGKEREGVLCIDASDDITYYADSVKGRFTISRDNSKNTVYLQMNSLRPEDTAVYYCATPIGLSSSCLLEYDYDYWGQGTLVTVSSGGGGSGGGSEVQLLESGGGLVQPGGSLRLSCAASGFTFRSFGMSWVRQAPGKGPEWVSSISGSGSDTLYADSVKGRFTISRDNSKNTLYLQMNSLRPEDTAVYYCTIGGSLSRSSQGTLVTVSSA
notes: Nanobody construct; C-terminal: A
On to B4, for which the “binding vs Reference Sequence (=100%)” value in assay [1] stood at 3%; in assay [2], 3%; in assay [3], 20%.

B5: SEQ ID NO 42 (VHH)
chain: EVQLVESGGGLVQPGGSLRLSCAASGRTFSYNPMGWFRQAPGKGRELVAAISRTGGSTYYPDSVEGRFTISRDNAKRMVYLQMNSLRAEDTAVYYCAAAGVRAEDGRVRTLPSEYTFWGQGTQVTVSSAAAEVQLVESGGGLVQPGGSLRLSCAASGRTFSYNPMGWFRQAPGKGRELVAAISRTGGSTYYPDSVEGRFTISRDNAKRMVYLQMNSLRAEDTAVYYCAAAGVRAEDGRVRTLPSEYTFWGQGTQVTVSSA
notes: as for B4
For the molecule B5, the “binding vs Reference Sequence (=100%)” value was 0% in assay [1], 1% in assay [2] and 4% in assay [3].

B6: SEQ ID NO 38 (bispecific antibody)
chain: EVQLVESGGGLVQPGGSLRLSCAASGFTFSSYAMSWVRQAPGKGLEWVSGIKSSGDSTRYAGSVKGRFTISRDNAKNTLYLQMNSLRPEDTAVYYCAKSRVSRTGLYTYDNRGQGTLVTVSSGGGGSGGGGSGGGGSGGGGSEVQLVESGGGLVQPGGSLRLSCAASGRTFNNYAMGWFRQAPGKEREFVAAITRSGVRSGVSAIYGDSVKDRFTISRDNAKNTLYLQMNSLRPEDTAVYYCAASAIGSGALRRFEYDYSGQGTLVTVSSA
notes: as for B4
As for B6, the “binding vs Reference Sequence (=100%)” value in assay [1] was determined as 0%; in assay [2], 9%; in assay [3], 25%; in assay [4], 7%.

B7: SEQ ID NO 48 (VHH)
VHH: EVQLVESGGGLVQPGGSLRLSCIASGLPFSTKSMGWFRQAPGKEREFVARISPGGTSRYYGDFVKGRFAISRDNAKNTTWLQMNSLKAEDTAVYYCASGERSTYIGSNYYRTNEYDYWGTGTQVTVSS
As to B7, the “binding vs Reference Sequence (=100%)” value was 3% in assay [1] and 0% in assay [2].

B8: SEQ ID NO 49 (VHH)
VHH: EVQLLESGGGLVQPGGSLRLSCAASGLPFSTKSMGWFRQAPGKGREFVSRISPGGTSRYYGDFVKGRFTISRDNSKNTLYLQMNSLRAEDTAVYYCASGERSTYIGSNYYRTNEYDYWGQGTLVTVSS
notes: C-terminal tag plus humanizing mutations
For the molecule B8, the figures for the “binding vs Reference Sequence (=100%)” value in assay [1] and in assay [2] were 4% and 0%, respectively.

The record behind these values is patent publication US20140205597A1 (published 2014).
